{
  "source": "paper PMC3347318",
  "target": "Sudan virus Boniface (SUDV-Bon) glycoprotein GP1,2, mucin-like domain and transmembrane domain delet (Sudan virus, variant Boniface) (UniProt Q66814)",
  "test": "crystal structure",
  "data": [
    {"substance": "Sudan virus Boniface (SUDV-Bon) glycoprotein GP1,2, mucin-like domain and transmembrane domain delet (from UniProt Q66814) (complex)", "values": [
      {"measurement": "stoichiometry N", "value": 3}
    ]}
  ]
}
